Measured values published in US20190241648A1 (STATEN BIOTECHNOLOGY B V, published 2019).
Ends that are not written are not given here.

What was measured:
Experiment in all cases: cyclic peptide substitution array
[1] = target: T1, ApoC3 peptide D68M (human, cyclic (thioether))
T1 peptide: DKFSEFWDLMPEV
Method in brief: (§1)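 Peptide microarrays incubated with antibody samples, then stained with goat anti-human IgG (Fc) DyLight680 and anti-HA DyLight800 control antibodies, scanned at intensity 7/7 (red/green). Secondary-only pre-stain checked background binding; framing HA peptides served as quality control; substitution effects read as changes in spot intensity.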

[2] = target: T2, ApoC3 peptide D68E (human, cyclic (thioether))
T2 peptide: DKFSEFWDLEPEV
Method in brief: as §1

[3] = target: T3, ApoC3 peptide F64Q (human, thioether (positions not given here); not fully specified (bridges); also: cyclic (thioether), positions not given here)
T3 peptide: DKFSEQWDLDPEV
Method in brief: as §1

[4] = target: T4, ApoC3 peptide L67S (human, thioether (positions not given here); not fully specified (bridges); also: thioether between a C-terminal Cys side chain and a modified N-terminus, the Cys is not in the chain)
T4 peptide: DKFSEFWDSDPEV
Method in brief: as §1

[5] = target: T5, ApoC3 peptide K60Q (human, cyclic (thioether))
T5 peptide: DQFSEFWDLDPEV
Method in brief: as §1

[6] = target: T6, ApoC3 peptide D66V (human, not fully specified; cyclic (thioether))
T6 peptide: DKFSEFWVLDPEV
Method in brief: as §1

[7] = target: T7, ApoC3 peptide E70F (human, cyclic (thioether))
T7 peptide: DKFSEFWDLDPFV
Method in brief: as §1

[8] = target: T8, ApoC3 peptide D59C (human, thioether (positions not given here); not fully specified (C-terminus, bridges))
T8 peptide: CKFSEFWDLDPEV
Method in brief: as §1

[9] = target: T9, ApoC3 peptide P69V (human, not fully specified; cyclic (thioether))
T9 peptide: DKFSEFWDLDVEV
Method in brief: as §1

[10] = target: T10, ApoC3 peptide F64R (human, thioether (positions not given here); not fully specified (bridges); also: cyclic (thioether), positions not given here)
T10 peptide: DKFSERWDLDPEV
Method in brief: as §1

[11] = target: T11, ApoC3 peptide E70T (human, cyclic (thioether))
T11 peptide: DKFSEFWDLDPTV
Method in brief: as §1

[12] = target: T12, ApoC3 peptide D68F (human, cyclic (thioether))
T12 peptide: DKFSEFWDLFPEV
Method in brief: as §1

[13] = target: T13, ApoC3 peptide L67I (human, thioether (positions not given here); not fully specified (bridges); also: thioether between a C-terminal Cys side chain and a modified N-terminus, the Cys is not in the chain)
T13 peptide: DKFSEFWDIDPEV
Method in brief: as §1

[14] = target: T14, ApoC3 peptide W65E (human, not fully specified; cyclic (thioether))
T14 peptide: DKFSEFEDLDPEV
Method in brief: as §1

[15] = target: T15, ApoC3 peptide L67T (human, thioether (positions not given here); not fully specified (bridges); also: thioether between a C-terminal Cys side chain and a modified N-terminus, the Cys is not in the chain)
T15 peptide: DKFSEFWDTDPEV
Method in brief: as §1

[16] = target: T16, ApoC3 peptide V71P (human, not fully specified; cyclic (thioether))
T16 peptide: DKFSEFWDLDPEP
Method in brief: as §1

[17] = target: T17, ApoC3 peptide D59A (human, thioether (positions not given here); not fully specified (C-terminus, bridges))
T17 peptide: AKFSEFWDLDPEV
Method in brief: as §1

[18] = target: T18, ApoC3 peptide D66I (human, not fully specified; cyclic (thioether))
T18 peptide: DKFSEFWILDPEV
Method in brief: as §1

[19] = target: T19, ApoC3 peptide D59W (human, thioether (positions not given here); not fully specified (C-terminus, bridges); also: cyclised via thioether between a C-terminal Cys and a modified N-terminus, the Cys and the N-terminal …)
T19 peptide: WKFSEFWDLDPEV
Method in brief: as §1

[20] = target: T20, ApoC3 peptide K60R (human, cyclic (thioether))
T20 peptide: DRFSEFWDLDPEV
Method in brief: as §1

[21] = target: T21, ApoC3 peptide E70I (human, cyclic (thioether))
T21 peptide: DKFSEFWDLDPIV
Method in brief: as §1

[22] = target: T22, ApoC3 peptide F64D (human, cyclic (thioether))
T22 peptide: DKFSEDWDLDPEV
Method in brief: as §1

[23] = target: T23, ApoC3 peptide L67D (human, thioether (positions not given here); not fully specified (bridges); also: thioether between a C-terminal Cys side chain and a modified N-terminus, the Cys is not in the chain)
T23 peptide: DKFSEFWDDDPEV
Method in brief: as §1

[24] = target: T24, ApoC3 peptide F64Y (human, thioether (positions not given here); not fully specified (bridges); also: cyclic (thioether), positions not given here)
T24 peptide: DKFSEYWDLDPEV
Method in brief: as §1

[25] = target: T25, ApoC3 peptide E63M (human, cyclic (thioether))
T25 peptide: DKFSMFWDLDPEV
Method in brief: as §1

[26] = target: T26, ApoC3 peptide D68K (human, cyclic (thioether))
T26 peptide: DKFSEFWDLKPEV
Method in brief: as §1

[27] = target: T27, ApoC3 peptide P69E (human, not fully specified; cyclic (thioether))
T27 peptide: DKFSEFWDLDEEV
Method in brief: as §1

[28] = target: T28, ApoC3 peptide P69W (human, not fully specified; cyclic (thioether))
T28 peptide: DKFSEFWDLDWEV
Method in brief: as §1

[29] = target: T29, ApoC3 peptide D68W (human, cyclic (thioether))
T29 peptide: DKFSEFWDLWPEV
Method in brief: as §1

[30] = target: T30, ApoC3 peptide D66L (human, not fully specified; cyclic (thioether))
T30 peptide: DKFSEFWLLDPEV
Method in brief: as §1

B1: Llama antibody 5E5 (antibody, V domains shown)
VH: QLQLVESGGGLVQPGGSLRLSCAASGFTFGTYSMRWVRQVPRKALEWVSSISTDGGGTAYRDSVKGRFTISRDNAKNTLYLQMNNLKPEDTAIYYCVIAGYSDWGQGTQVTVSS
VL: ATMLTQSPGSLSVVPGESASISCKTSQGLVHSDGKTYFYWFLQKPGQSPQQLIYQVSNRASGVPDRFTGSGSGTDFTLKISGVKAEDAGVYYCAQGTYYPHTFGSGTRLEIK
notes: detected with goat anti-human IgG (Fc); also called mAb 5E5
% of binding to wild-type peptide [1]: 2.82%
% of binding to wild-type peptide [2]: 40.1%
% of binding to wild-type peptide [3]: 130%
% of binding to wild-type peptide [4]: 36.5%
% of binding to wild-type peptide [5]: 178%
% of binding to wild-type peptide [6]: 0%
% of binding to wild-type peptide [7]: 40.1%
% of binding to wild-type peptide [8]: 66.2%
% of binding to wild-type peptide [9]: 55.2%
% of binding to wild-type peptide [10]: 73.7%
% of binding to wild-type peptide [11]: 83%
% of binding to wild-type peptide [12]: 0%
% of binding to wild-type peptide [13]: 46.9%
% of binding to wild-type peptide [14]: 0%
% of binding to wild-type peptide [15]: 168%
% of binding to wild-type peptide [16]: 173%
% of binding to wild-type peptide [17]: 44.4%
% of binding to wild-type peptide [18]: 0%
% of binding to wild-type peptide [19]: 56.8%
% of binding to wild-type peptide [20]: 112%
% of binding to wild-type peptide [21]: 65.6%
% of binding to wild-type peptide [22]: 259%
% of binding to wild-type peptide [23]: 0.99%
% of binding to wild-type peptide [24]: 118%
% of binding to wild-type peptide [25]: 13.1%
% of binding to wild-type peptide [26]: 0.04%
% of binding to wild-type peptide [27]: 43%
% of binding to wild-type peptide [28]: 5.36%
% of binding to wild-type peptide [29]: 0%
% of binding to wild-type peptide [30]: 0%
